Where a SMILES comes first, the peptide text is derived from it. The star is where a group is joined. Cbz = O=C(OCc1ccccc1)*
How the values were obtained:
[1] = tested on: HIF-1α protein in MIA PaCa-2 cells; assay: HIF-1α protein level and stability in CHC knockdown cells (Western blot); assay type: cell-based, human; conditions: MG132 10 μM, DFX 100 μM
Protocol: (§1) Cells were extracted with RIPA buffer and the supernatants were immunoprecipitated using either anti-CHC antibody, Pa65-2, mAb X-22 (Affinity), or anti-HIF-1α antibody (BD), then analyzed by immunoblotting. The signals were developed using enhanced chemiluminescence reagents (ECL) (Thermo).
(§2) For hypoxia experiments, MIA PaCa-2 cells were grown in a Ruskinn Hypoxic Chamber (APM-50D, 18 Astec, Japan) and treated with either 1% O2, 5% CO2 for 18 h, or given DFX, deferoxamine (100 μM, Sigma) treatment for 5 or 16 h. For proteasome inhibitor treatment, MG132 (10 μM, Sigma) was added to culture medium then incubated 5 to 17 h.

pancreatic cancer = conditions: cited from earlier work
MIA PaCa-2 cells [2] = assay: Binding of Pa65-2 to cells by ELISA, flow cytometry and immunofluorescence; assay type: cell-based, human; conditions: flow cytometry, immunofluorescent analyses
Protocol: Cells were cultured in 96-well polystyrene plates for 3 days and then fixed with 2% paraformaldehyde. After blocking and washing twice with PBS/0.1 % Tween 20 (PBST0.1), the hybridoma supernatants were added and the plates were incubated for 2 h at room temperature. This was followed by washing and incubating with horseradish peroxidase (HRP)-conjugated goat anti-mouse IgG for 1 h. The colorimetric reaction was developed with the substrate ortho-phenylene-diamine (OPD) according to the manufacturer's instructions (Sigma), and was stopped by adding 3 N HCl. Absorbance at 490 nm was measured using a microplate reader. Each control and test group was tested in triplicate. Each experiment was repeated at least three times. To analyse binding, cells (1×10^5 cells per tube) were prepared, washed, centrifuged, and resuspended in 100 μl of PBS/1% FCS containing Pa65-2 or NM-IgG. Cells were incubated at 4° C. for 1 h, washed twice with PBS/1% FCS and stained with […] isothiocyanate (FITC)-labeled goat anti-mouse IgG at 4° C. for 20 min. The stained cells were washed twice and fluorescence signals were measured using a FACScan (BD). […]
(§3) 3×10^3 cells were cultured into each well of 96-well polystyrene plates for 3 days and fixed with 2% paraformaldehyde. […] Absorbance at 490 nm was measured using a microplate reader. […]

MIA PaCa-2 cells [3] = assay: MTT cell proliferation assay; assay type: cell-based, human; conditions: 50 μg/ml for 3 days
Protocol: Cells were cultured in 96-wells plates. To reduce cancer growth, the cells were culture in Dulbecco's modified Eagle's medium (DMEM) containing 50 μg/ml Pa65-2 or NM-IgG. After incubating for 0, 1, 2, 3 days, the cells were subjected to an MTT assay. The absorbance was determined with a microplate reader at 540 nm. Each assay was repeated for three times.

HUVECs [4] = assay: Inhibition of HUVEC VEGF internalization; assay type: cell-based, human; conditions: 50 μg/ml, VEGF-A 40 ng/ml
Protocol: HUVEC were washed with serum-free medium, incubated in 1% BSA in serum-free medium at 37° C., and pretreated with Pa65-2 or NM-IgG (50 μg/ml) at 37° C. They were then incubated with or without VEGF-A (40 ng/ml) at 37° C. or 4° C. After cells were washed, fixed and made permeable. The permeable cells were incubated with anti VEGF-A antibody (A-20, Santa Cruz). Finally, cells were stained using Rhodamine-conjugated secondary antibodies.

[5] = tested on: human pancreatic cancer tissue array; assay: Immunohistochemistry of Pa65-2 on human pancreatic cancer tissue arrays; conditions: for Labeling Score: score 0-4
Protocol: (§4) The human pancreatic cancer gene expression arrays (Origene) were analyzed by an ABI9600 thermocycler (Applied Biosystems). Tissue arrays were purchased from Pantomics Inc. Tissue sections were stained with antibodies specific for CHC (Pa65-2), VEGF (GeneTex), HIF-1α (Millipore), NM-IgG, and UEA-1-FITC (Vector). Quantification of DAB intensity was by HistoQuest software (TissueGnostics). The protocol was approved by the institutional Review Board of Human Subjects Research Ethics Committee of Academia Sinica (Taipei).
We modified the “Quick Score” methods by reducing the original scales (Siegel et al. (2012) “Cancer statistics 2012” CA Cancer J Clin, 62, 10-29). Two indices were used in evaluating the staining results of tumors. Labeling Index (LI) indicates the number of tumor cells that were immunostained (or “positive cells”) as a proportion of the overall number of cells. A score on a scale of 0-2 was assigned; 0-10%=0, 11-49%=1, 50-100% =2. The second index is the Intensity Index (II), which measures the average intensity of the immunostaining. A score on a scale of 0-2 was assigned; no staining=0, weak staining=1, and strong staining=2. The scores from these two indices were added to give the tumor Labeling Score (LS), which ranges from 0-4.

[6] = tested on: blood vessels of human pancreatic cancer tissues; assay: Immunofluorescent co-staining of Pa65-2 and UEA-1 in pancreatic cancer tissue
Protocol: as §4

[7] = tested on: MDAMB-231 (breast cancer), CL1-5 (lung cancer), SKOV3 (ovary cancer) and SAS (oral cancer); assay: ELISA and Western blot binding on other cancer cell lines; assay type: cell-based, human; conditions: MDAMB-231, CL1-5, SKOV3, SAS
Protocol: as §1
(§5) Cells were cultured in 96-well polystyrene plates for 3 days and then fixed with 2% paraformaldehyde. After blocking and washing twice with PBS/0.1 % Tween 20 (PBST0.1), the hybridoma supernatants were added and the plates were incubated for 2 h at room temperature. This was followed by washing and incubating with horseradish peroxidase (HRP)-conjugated goat anti-mouse IgG for 1 h. The colorimetric reaction was developed with the substrate ortho-phenylene-diamine (OPD) according to the manufacturer's instructions (Sigma), and was stopped by adding 3 N HCl. Absorbance at 490 nm was measured using a microplate reader. Each control and test group was tested in triplicate. Each experiment was repeated at least three times. […] The stained cells were washed twice and fluorescence signals were measured using a FACScan (BD).
as §3

MIA PaCa-2 cells [8] = assay: Apoptosis assay (FLICA caspase activity); assay type: cell-based, human; conditions: 24 h
Protocol: Apoptosis of cultured cells was verified through the detection of caspase activity using sulforhodamine FLICA apoptosis detection kit (Immunochemistry Technologies). Cells in 96-well culture plates were treated with Pa65-2 or NM-IgG for 24 h. After incubating with FLICA, cells was read at ex/era of 550/595 nm with fluorescence plate reader (Molecular Devices).

HUVECs [9] = assay: Apoptosis in HUVEC by TUNEL staining; assay type: cell-based, human
Protocol: (§6) CD31 staining and TUNEL assays were carried out as described previously. The slides were then visualized under a fluorescent microscope and analyzed with MetaMorph software.

MIA PaCa-2 cells [10] = assay: EGF and transferrin uptake (internalization) assay; assay type: cell-based, human; conditions: pretreated 50 μg/ml at 37° C.
Protocol: EGF and Tf uptake assays were carried out using a fluorescence-based approach, as previously described (26). Cells were washed with serum-free medium, incubated in 1% BSA in serum-free medium at 37° C., and pretreated with Pa65-2 or NM-IgG (50 μg/ml) at 37° C. They were then incubated with or without Alex 555-EGF (1 μg/ml, INVITROGEN™) or Alex 555-transferrin (50 μg/ml) at 37° C. or 4° C. The cells were imaged using a Leica TCS SP confocal microscope (Leica).

[11] = biological target: T1, human clathrin heavy chain (CHC) (Homo sapiens, UniProt Q00610); assay: Target identification: immunoaffinity, LC-MS/MS, immunoprecipitation and Western blot; assay type: binding; conditions: immunoprecipitation and Western blot in parallel with mAb X-22; CHC knockdown
T1 construct: endogenous in cells; host or cells: MIA PaCa-2 (human pancreatic adenocarcinoma cells)
T1 sequence (Q00610 whole entry): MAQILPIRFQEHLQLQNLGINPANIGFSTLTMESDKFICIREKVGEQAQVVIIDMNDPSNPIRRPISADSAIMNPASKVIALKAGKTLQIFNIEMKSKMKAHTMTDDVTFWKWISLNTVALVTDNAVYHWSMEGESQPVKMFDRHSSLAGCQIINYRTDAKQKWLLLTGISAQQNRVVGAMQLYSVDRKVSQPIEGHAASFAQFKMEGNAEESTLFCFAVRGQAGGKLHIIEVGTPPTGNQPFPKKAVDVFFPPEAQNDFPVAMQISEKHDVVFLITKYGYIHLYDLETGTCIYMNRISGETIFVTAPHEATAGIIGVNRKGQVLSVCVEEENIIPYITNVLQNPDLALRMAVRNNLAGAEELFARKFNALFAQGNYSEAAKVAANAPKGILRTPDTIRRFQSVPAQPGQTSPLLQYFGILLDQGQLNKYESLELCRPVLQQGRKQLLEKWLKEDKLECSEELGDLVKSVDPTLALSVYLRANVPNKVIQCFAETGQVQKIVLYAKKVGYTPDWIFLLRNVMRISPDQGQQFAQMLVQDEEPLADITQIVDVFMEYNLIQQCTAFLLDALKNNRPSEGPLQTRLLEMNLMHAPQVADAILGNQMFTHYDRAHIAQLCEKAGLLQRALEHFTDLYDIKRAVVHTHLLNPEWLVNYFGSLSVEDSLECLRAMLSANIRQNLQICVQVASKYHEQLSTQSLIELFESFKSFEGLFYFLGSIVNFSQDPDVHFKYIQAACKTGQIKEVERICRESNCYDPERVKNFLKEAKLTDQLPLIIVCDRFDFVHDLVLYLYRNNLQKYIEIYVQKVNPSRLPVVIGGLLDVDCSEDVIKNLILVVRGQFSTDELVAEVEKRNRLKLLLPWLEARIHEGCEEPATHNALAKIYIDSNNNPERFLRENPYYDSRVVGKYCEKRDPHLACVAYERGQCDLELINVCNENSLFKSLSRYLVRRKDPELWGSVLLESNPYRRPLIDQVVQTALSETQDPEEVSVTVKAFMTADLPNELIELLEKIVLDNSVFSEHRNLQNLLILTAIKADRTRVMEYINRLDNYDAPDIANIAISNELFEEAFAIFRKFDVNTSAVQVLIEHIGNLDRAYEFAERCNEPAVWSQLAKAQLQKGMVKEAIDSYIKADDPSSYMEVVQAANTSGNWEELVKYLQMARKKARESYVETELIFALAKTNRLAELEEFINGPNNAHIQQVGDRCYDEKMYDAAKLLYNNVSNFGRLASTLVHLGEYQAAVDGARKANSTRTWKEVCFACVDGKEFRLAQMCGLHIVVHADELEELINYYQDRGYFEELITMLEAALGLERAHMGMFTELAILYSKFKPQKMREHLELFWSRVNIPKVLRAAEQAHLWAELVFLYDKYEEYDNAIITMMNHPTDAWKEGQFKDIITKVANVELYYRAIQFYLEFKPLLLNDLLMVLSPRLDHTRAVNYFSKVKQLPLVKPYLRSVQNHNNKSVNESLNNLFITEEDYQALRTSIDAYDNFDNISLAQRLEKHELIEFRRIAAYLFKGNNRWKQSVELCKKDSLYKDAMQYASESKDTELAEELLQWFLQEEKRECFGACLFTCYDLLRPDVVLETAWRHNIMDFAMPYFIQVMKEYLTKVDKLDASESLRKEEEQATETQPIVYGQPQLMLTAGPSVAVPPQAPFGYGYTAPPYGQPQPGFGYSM
Protocol: MIA PaCa-2 cell lysates were purified by protein G sepharose (GE), coupled with Pa65-2 and eluted with elution buffer. The eluates were separated by SDS-PAGE. The band of interest was cut from the gel, reduced with dithioerythreitol (DTE) alkylated with iodoacetamide (IAA) and digested with trypsin for 16 h at 37° C. The digested peptides were analyzed by LC-MS/MS sequencing in the Core Facility for Proteomics and Structural Biology Research at Academia Sinica (Taipei).
as §1

[12] = tested on: HIF-1α expression and VEGF secretion in MIA PaCa-2 cells; assay: Western blot of HIF-1α expression and VEGF secretion under DFX hypoxia; assay type: cell-based, human; conditions: DFX 100 μM, 50 μg/ml, 48 h
Protocol: as §1, §2

[13] = tested on: MIA PaCa-2-derived pancreatic cancer xenografts; assay: Antitumor efficacy of Pa65-2 in pancreatic cancer xenografts; assay type: in vivo, NOD/SCID mice
Protocol: All animal experiments were performed as per the guidelines of the National Laboratory Animal Center. The protocol was approved by the Committee on the Ethics of Animal Experiments of Academia Sinica (Taipei). A xenograft model was generated by injecting NOD/SCID mice with MIA PaCa-2 cells transduced with either CHC shRNA or control vector. The two kinds of transduced cells were injected into different lateral sides of the hind limbs of eight animals at the same time. For analysis of antitumor efficacy of Pa65-2, NOD/SCID mice bearing MIA PaCa-2-derived pancreatic cancer xenografts (˜50 mm^3) were intravenously injected in the tail vein with Pa65-2, or gemcitabine, or NM-IgG, or equivalent
volumes of PBS. Tumors were measured by calipers every three days, and mice were observed routinely for weight loss as a symptom of drug toxicity. The tumor volumes were calculated as length×(width)^2×0.52. Animals were treated following the guidelines established by Academia Sinica (Taipei).
as §6

MIA PaCa-2 cells [14] = assay: Matrigel invasion assay; assay type: cell-based, human
Protocol: RT-CES (ACEA), a microelectronic cell sensor system, was used to count tire number of living cells. Cells (5×10^3) were seeded into each sensor-containing well in microliter plates. The electronic sensors provided a continuous (every 6 h), quantitative measurement of the cell index in each well. Cell growth was measured for 72 h, and cell indices for each well were recorded at all time points. Cell invasion was assayed in 24-well Biocoat Matrigel invasion chambers (8 μm; Millipore) according to the manufacturer's directions. Cells were counted under a microscope in five predetermined fields. Assays were performed in triplicate.

[15] = tested on: pancreatic adenocarcinoma cell lines MIA PaCa-2 and AsPC-1; assay: ELISA and Western blot binding screen on pancreatic adenocarcinoma cell lines; assay type: cell-based, human; conditions: MIA PaCa-2, AsPC-1 versus normal HUVEC, NNM, CCD-1112Sk
Protocol: as §1, §5, §3

CC(C)C[C@@H](C=O)NC(=O)[C@H](CC(C)C)NC(=O)[C@H](CC(C)C)NC(=O)OCc1ccccc1 [MG132] (Cbz-Leu-Leu-Leu-aldehyde)
decreased protein level of HIF-1α in CHC knockdown cells [1]: rescued

Nc1ccn([C@@H]2O[C@H](CO)[C@@H](O)C2(F)F)c(=O)n1 [gemcitabine]
effectiveness in treating pancreatic cancer (pancreatic cancer; most commonly used medicine): only moderately effective

bevacizumab
improvement in overall survival of pancreatic cancer patients (pancreatic cancer; clinical trial, in combination with small molecule drugs): no significant improvement

B1: Pa65-2: monoclonal antibody that recognizes human clathrin heavy chain (CHC); VH SEQ ID NO: 2, VL SEQ ID NO: 3 (antibody, listed as Homo sapiens, V domains shown)
VH: EVKLVESGGGLVKPGGSLNISCAASGFTFSNYVMSWVRQTPEKRLEWVATISSGDNYMYYPDSVKGRFTISSDNAKNTLFLQMSSLRSEDTALYYCARHFDNYEGNSMDYWGQGTSVTVSSAKTTPPSDYPLA
VL: DIVLTQSPATLSVTPGDSVSLSCRASQSIRSNLHWYQQKSHESPRLLIKYASQSISGIPSRFSGSGSGTDFILSINSVATEDFGVYFCQQSNSWPLTFGAGTKLELKRADAAPTVS
recognition of MIA PaCa-2 cells (MIA PaCa-2 cells [2]): specifically recognize MIA PaCa-2 cells
cancer cell proliferation (MIA PaCa-2 cells [3]): inhibited
VEGF internalization (HUVECs [4]): suppressed VEGF internalization
staining of pancreatic cancer tissues ([5]; 46 specimens, tissue array): positively stained
Labeling Score ([5]; Adenocarcinoma I, stage T2N0M0): 3
Labeling Score ([5]; Adenocarcinoma I, stage T2N1M0): 2
Labeling Score ([5]; Adenocarcinoma I, stage T3N0M0): 3
Labeling Score ([5]; Adenocarcinoma I, stage T3N1M0): 3
Labeling Score ([5]; Adenocarcinoma II, stage T2N0M0): 2
Labeling Score ([5]; Adenocarcinoma II, stage T3N0M0): 3
Labeling Score ([5]; Adenocarcinoma II, stage T3N1MX): 3
Labeling Score ([5]; Adenocarcinoma II, stage T4N1M1): 4
Labeling Score ([5]; Adenocarcinoma III, stage T3N0M0): 3
Labeling Score ([5]; Adenocarcinoma III, stage T3N1MX): 3
Labeling Score ([5]; Normal Pancreas): 0
staining of normal pancreatic tissues ([5]; two normal pancreatic tissues, tissue array): two normal pancreatic tissues were not
colocalization of Pa65-2 antigen with endothelial cell marker UEA-1 [6]: colocalized
binding to other types of cancer cell lines [7]: can also bind
cell apoptosis (MIA PaCa-2 cells [8]): induced cell apoptosis
apoptosis in HUVECs (HUVECs [9]): induced apoptosis
EGF uptake (MIA PaCa-2 cells [10]; Alex 555-EGF 1 μg/ml): blocked
transferrin uptake (MIA PaCa-2 cells [10]; Alex 555-transferrin 50 μg/ml): blocked
specificity for CHC [11]: specifically recognized CHC
hypoxia-induced HIF-1α expression [12]: suppressed
VEGF secretion ([12]; culture media): suppressed
average tumor volume smaller than the control groups ([13]; 10 mg/kg i.v. every three days, day 36, n=6, P<0.05): about 2 fold
blood vessels in tumor sections ([13]; CD31 staining, P<0.05): decreased
inhibitory effect on tumor growth compared with gemcitabine ([13]; Pa65-2 10 mg/kg versus gemcitabine 15 mg/kg, i.v.): equivalent effects
apoptotic cells in tumor sections ([13]; TUNEL, n=6, P<0.01): increased
migration (FIG. 5C) (MIA PaCa-2 cells [14]): inhibited
binding affinity to pancreatic cancer cell lines [15]: strong binding affinity

From patent US8969530B2, “Anti-clathrin heavy chain monoclonal antibody for inhibition of tumor angiogenesis and growth and application thereof” (Academia Sinica, priority 2011, dated 2015)
